Earlier results on two substances are cited in JP2018508186A, “Il−17a結合ポリペプチド” (アフィボディ アクティエボラーグ, priority 2015, dated 2016).

One may read the Kd as the constant that tells how readily two partners part at equilibrium. The IC50 is the concentration at which inhibition is half-maximal.

The target in data set [1] is T1, IL-17A (Homo sapiens, UniProt Q16552). Particulars: from WO2006/013107, WO2012/125680, WO2007/070750; read-out: KD for IL-17A, reported.
Data set [2] has as its target T1, IL-17A. The conditions noted are these: from WO2006/013107 and WO2012/125680; read-out: IC50, hIL-6 production neutralising activity, reported.

T1 sequence (Q16552 24-155): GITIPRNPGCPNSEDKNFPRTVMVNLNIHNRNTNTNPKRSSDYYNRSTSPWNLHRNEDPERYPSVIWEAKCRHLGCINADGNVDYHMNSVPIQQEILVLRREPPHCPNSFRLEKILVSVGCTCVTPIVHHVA

“イキセキズマブ: anti-IL-17A monoclonal antibody”: in data set [1], the Kd is 0.002 nM.

Turning to セクキヌマブ: anti-IL-17A monoclonal antibody, the Kd in data set [1] was 0.122 nM. For the same substance, in data set [2], the IC50 was 2.1 ± 0.1 nM.
